Where a chain is given by its changes, count along the chain named.
B1: 1H10 anti-CDH17 recombinant antibody (human IgG1) (antibody, V domains shown)
VH: QVQLVESGGGVVQPGRSLRLSCVASGFTFSSYGMHWVRQAPGKGLEWVTFIWYDGSNKNYADSVKGRFTISRDNSKNTLNLQMNSLRVEDTAVYYCARDRYSSGWDVFDYWGQGTLVTVSS
VL: DIQMTQSPSSVSASVGDRVTITCRASQDISSWLAWYQQQPGKAPKLQIYAASSLQSGVPSRFSGSGSGTDFTLTISSLQPEDFATYYCQQAKSFPPTFGQGTKVEIKR
B2: 2F9 anti-CDH17 recombinant antibody (human IgG1) (antibody, V domains shown)
VH: EVQLVESGGGVVRPGGSLRLSCAASGFTFDDYGMSWVRQAPGKGLEWVSGLSWNGGNTYYADSVKGRFTISRDNAKNSLYLQMNSLRAEDTALYYCARGSRYNWNYDAFDIWGQGTLVTVSS
VL: DIQMTQSPSSLSASIGDRVTITCRASQGIRNALGWYQQKPGKAPKRLIYAASNLQSGVPSRFSGSGSGTEFTLTISSLQPEDFATYYCLQHNSYPFTFGPGTKVEIKR
B3: 9E2 anti-CDH17 recombinant antibody (human IgG1) (antibody, V domains shown)
VH: B2 VH with D31N, L51I, S52N, N57S, K65R, N105S
VL: B2 VL with I15V, I29V, N53S
B4: 13C7 anti-CDH17 recombinant antibody (human IgG1) (antibody, V domains shown)
VH: QITLKESGPTLVKPTQTLTLTCTFSGFSLSTSGVGVGWIRQPPGKALEWLALIYWNDDKRYRPSLKNRLTITKDTSKNQVVLTMTNMDPVDTATYYCTHYGVTAPFYNWFDPWGQGTLVTVSS
VL: DIQMTQSPSSLSASVGDRVTITCRASQSITSYLNWYQQKPGKAPKLLIYAASSLQSGVPSRFSGSGSGTDFTLTISSLQPEDFATYYCQRSYSTLTFGGGTKVEIKR
B5: 19C7 anti-CDH17 recombinant antibody (human IgG1) (antibody, V domains shown)
VH: B4 VH with F27I, S32G, A51S, R62S, N67S, T75S, T98A, Y100S, V102L, T103A
VL: B4 VL with T30S, S31N, Q38L, K42N, Y49F, Y87F
B6: 17F3 anti-CDH17 recombinant antibody (human IgG1) (antibody, V domains shown)
VH: EVQLVESGGGLVKSGGSLRLSCAASGFTFSSYSLKWVRQAPGKGLEWVSSISSSSGYIYYADSVKGRFTISRDNAKNSLYLQMNSLRAEDTAMYYCARAVSTIAARPGYYYYYMDVWGKGTLVTVSS
VL: DIQMTQSPSSVSASIGDRVTITCRASQDISTWFAWYQQKPGKAPKLLIYAASTLRSGVPSRFSGSGSGTDFTLTINSLQPEDFATYYCQQANSFPLTFGGGTKVEIKR
B7: 15A4 (hybridoma clone supernatant) (antibody, V domains shown)
VH: B1 VH with V23A, T28N, T49A, I51V, K58Q, K76N, N80Y, V88A
VL: DIQMTQSPSSVSASVGDRVTITCRASQGISSWLAWYQQKPGKAPKLLIFAASSLQSGVPSRFSGSGSGTGFTLTISSLQPEDFATYYCQQAKSFPPTFGQGTKVEIK
notes: Hybridoma supernatant
B8: 1H10 (hybridoma clone supernatant) (antibody, V domains shown)
VH: B1 VH
VL: B7 VL with G28D, K39Q, L47Q, F49Y, G70D
notes: Hybridoma supernatant from mice encoding human heavy and kappa variable regions
B9: 14B12 (hybridoma clone supernatant) (antibody, V domains shown)
VH: QVQLQESGPGLVKPSETLSLTCTVSGGSINTYYRSWIRQPPGKGLEWIGYIYYSGNTNYNPSLKSRVTISADTSKNQFSLNLISVTAADTAMYYCARAQYGEEAFDIWGQGTLVTVSS
VL: DIQMTQSPSSLSASVGDRVTITCRASQSITTYLNWYQQKPGKAPQLLIFAASRLQTGVPSRFSGSGSGTDFTLTISSLLPGDFATYYCQQSYNTPPTFGGGTKVEIK
notes: Hybridoma supernatant
B10: 10E11 (hybridoma clone supernatant) (antibody, V domains shown)
VH: EVQLVQSGTEVKKPGESLKISCKDSGYRFSSYWIGWVRQMPGKGLEWMGIIYPGDSDTRYSPSFQGQVTISADKSISTAYLQWRSLKASDTAMYYCARRGWVNYFDYWGQGTLVTVSS
VL: B7 VL with S31N, A34G, F49Y, G70D, K92N, P96L, Q100G
notes: Hybridoma supernatant
B11: 2F9 (hybridoma clone supernatant) (antibody, V domains shown)
VH: B2 VH
VL: DIQMTQSPSSLSASIGDRVTITCRASQGIRNALGWYQQKPGKAPKRLIYAASNLQSGVPSRFSGSGSGTEFTLTISSLQPEDFATYYCLQHNSYPFTFGPGTKVEIK
notes: Hybridoma supernatant
B12: 9E2 (hybridoma clone supernatant) (antibody, V domains shown)
VH: B2 VH with D31N, L51I, S52N, N57S, K65R, N105S
VL: B11 VL with I15V, I29V, N53S
notes: Hybridoma supernatant
B13: 13C7 (hybridoma clone supernatant) (antibody, V domains shown)
VH: B4 VH
VL: DIQMTQSPSSLSASVGDRVTITCRASQSITSYLNWYQQKPGKAPKLLIYAASSLQSGVPSRFSGSGSGTDFTLTISSLQPEDFATYYCQRSYSTLTFGGGTKVEIK
notes: Hybridoma supernatant
B14: 19C7 (hybridoma clone supernatant) (antibody, V domains shown)
VH: B4 VH with F27I, S32G, A51S, R62S, N67S, T75S, T98A, Y100S, V102L, T103A
VL: B13 VL with T30S, S31N, Q38L, K42N, Y49F, Y87F
notes: Hybridoma supernatant
B15: 17F3 (hybridoma clone supernatant) (antibody, V domains shown)
VH: B6 VH
VL: DIQMTQSPSSVSASIGDRVTITCRASQDISTWFAWYQQKPGKAPKLLIYAASTLRSGVPSRFSGSGSGTDFTLTINSLQPEDFATYYCQQANSFPLTFGGGTKVEIK
notes: Hybridoma supernatant

Molecular target: T1, human CDH17 as originally expressed in cells (cell surface CDH17 on AsPC1, GP2d and other cancer cell lines) (human, UniProt Q12864 23-832)
Assay: cell-based or functional assay

| Binder | IC50 of indirect killing assay to evaluate the internalization in AsPC1 cells [nM] |
| --- | --- |
| B1 | 0.19 |
| B2 | 0.14 |
| B3 | 0.15 |
| B4 | 0.09 |
| B5 | 0.09 |
| B6 | 0.08 |

Molecular target: T1, human CDH17 as originally expressed in …
Assay: flow cytometry titration on CDH17 positive AsPC1 cells
Protocol: To determine the binding of recombinant antibody to cell surface CDH17 receptors, cells were first harvested and resuspended in cell staining buffer (BioLegend, Cat #420201) at 1.3-1.5×10⁶ cells/mL. Then, the cells were treated with human Fc receptor blocking reagent (BioLegend, Cat #422302) on the ice for 10 min. The resulting cell suspension was aliquoted into 50 μL aliquots. […] The cells were incubated on the ice for 1 hour and then washed with cell staining buffer twice. 50 μL of secondary antibody (PE conjugated goat anti-human Fc, eBioscience™, 1:250 dilution) was added to each sample to resuspend the cells. The cells were incubated on the ice for another 20 min. Cells were subsequently washed twice with cell staining buffer and resuspended in 4% PFA to fix the cells. The samples were analyzed using iQue3 to measure the median fluorescence intensity using corresponding channels.

| Kd [nM] | Binder |
| --- | --- |
| 0.31 | B1 |
| 0.17 | B2 |
| 0.31 | B3 |
| 0.28 | B4 |
| 0.13 | B5 |
| 0.74 | B6 |

Molecular target: T2, BSA (UniProt P02769 25-607)
T2 construct: Control coating protein of the ELISA
T2 sequence (P02769 25-607 limits assumed): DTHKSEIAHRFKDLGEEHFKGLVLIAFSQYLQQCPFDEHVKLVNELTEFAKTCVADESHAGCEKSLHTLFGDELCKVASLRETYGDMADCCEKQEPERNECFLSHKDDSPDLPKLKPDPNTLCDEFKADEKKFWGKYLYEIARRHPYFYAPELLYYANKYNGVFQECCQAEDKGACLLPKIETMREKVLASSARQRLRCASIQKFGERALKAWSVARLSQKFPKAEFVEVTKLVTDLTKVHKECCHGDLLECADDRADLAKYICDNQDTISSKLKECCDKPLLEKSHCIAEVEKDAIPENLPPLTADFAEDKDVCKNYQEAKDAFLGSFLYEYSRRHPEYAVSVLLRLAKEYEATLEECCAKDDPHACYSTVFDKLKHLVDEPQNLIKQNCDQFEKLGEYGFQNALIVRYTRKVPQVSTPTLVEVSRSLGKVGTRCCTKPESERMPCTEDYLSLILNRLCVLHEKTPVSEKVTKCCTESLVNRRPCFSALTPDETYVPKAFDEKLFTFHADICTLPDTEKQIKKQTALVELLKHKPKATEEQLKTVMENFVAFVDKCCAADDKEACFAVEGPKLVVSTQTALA
Assay: ELISA, plate coated with 1 µg/ml BSA, hybridoma supernatant
Protocol: (§1) ELISA was performed using the DuoSet ELISA Ancillary Kit (R&D System, DY008). ELISA plates were coated with 1 μg/ml of human CDH17 His Tag (Sino biological, catalog number 11360-H08H), or BSA overnight. Excess unbound proteins were washed off by washing the plates three times with the wash buffer before blocking for 1 hour at room temperature. 100 μl CDH17 hybridoma supernatant was added in each well and incubated for 1 hour at room temperature. Excess unbound antibodies were washed off and 100 μl of 1:30000 diluted secondary antibody Goat anti-mouse IgG Fc-HRP (ab5870) was added to each well for another 1 hour. Plates were washed before the addition 50 μL of […] (color A and color B) according to manufacturer's protocol. The reactions were stopped using 25 μL of stop solution. Optical density at 450 nm of samples was measured by a microplate reader (PerkinElmer).

| binding result | Binder |
| --- | --- |
| no binding | B7 |
| no binding | B8 |
| no binding | B9 |
| no binding | B10 |
| no binding | B11 |
| no binding | B12 |
| no binding | B13 |
| no binding | B14 |
| no binding | B15 |

Molecular target: T2, BSA
Assay: ELISA, plate coated with BSA, hybridoma supernatant
Protocol: as §1

| OD450 [OD450] | Binder |
| --- | --- |
| 0.0431 | B7 |
| 0.0399 | B8 |
| 0.041 | B9 |
| 0.0475 | B10 |
| 0.0718 | B11 |
| 0.0429 | B12 |
| 0.0432 | B13 |
| 0.0468 | B14 |
| 0.0425 | B15 |

Molecular target: T3, human CDH17 His Tag (Sino biological, catalog number 11360-H08H) (human, UniProt Q12864 23-787)
T3 construct: Bought recombinant protein; also called hCDH17; human CDH17 protein; not shown: His tag
Assay: ELISA, plate coated with 1 µg/ml human CDH17 His Tag, hybridoma supernatant
Protocol: as §1

| OD450 [OD450] | Binder |
| --- | --- |
| 1.6 | B7 |
| 1.79 | B8 |
| 1.88 | B9 |
| 1.48 | B10 |
| 1.72 | B11 |
| 1.48 | B12 |
| 1.62 | B13 |
| 1.84 | B14 |
| 1.66 | B15 |
